In PMC9018821, “Heterozygous variants in GATA2 contribute to DCML deficiency in mice by disrupting tandem protein binding” (Communications Biology, 2022):

B1: murine GATA2 finger region containing the NF and CF domains (289 aa to 480 aa), wild type, MBP-fused or GST-fused (domain or fragment)
chain: not shown
notes: GATA2, murine, finger region containing the NF and CF domains, residues 289-480; Two differently tagged copies of the same stretch were used; Each copy carries ONE carrier: MBP-fused (bait on amylose beads) or GST-fused (prey in a1, bait on glutathione beads in a2); They are kept as one molecule because the protein is tested against itself; also called G2^WT; MBP-fused G2^WT
B2: murine GATA2 finger region (289 aa to 480 aa) with R398W, GST-fused or MBP-fused (domain or fragment)
chain: not shown
notes: GATA2, murine, finger region containing the NF and CF domains, residues 289-480, with the patient mutation R398W; Each copy carries ONE carrier: GST-fused in a1 (prey), MBP-fused in a2 (prey); The mutation corresponds to a human germline GATA2 mutation found in patients; also called G2^R398W; GST-fused G2^R398W
B3: murine GATA2 finger region (289 aa to 480 aa) with T354M, GST-fused or MBP-fused (domain or fragment)
chain: not shown
notes: GATA2, murine, finger region containing the NF and CF domains, residues 289-480, with the patient mutation T354M; Each copy carries ONE carrier: GST-fused in a1 (prey), MBP-fused in a2 (prey); The mutation is a germline GATA2 mutation found in patients; also called G2^T354M; GST-fused G2^T354M

How the values were obtained:
[1] = target: the molecule itself; experiment: pull-down; recombinant MBP-fused bait mixed with GST-fused prey in binding buffer at room temperature; complexes purified with amylose magnetic beads; immunoblot with anti-GST and anti-MBP
[2] = target: B1; experiment: as above; conditions: both partners purified

Row | binding result [2] | Binder | binding result [1]
1 |  | B1 | binds
2 | binds | B2 | 
3 | binds | B3 | 
